Source: article PMC5693252
Where two headings read alike, the source gives them in different places.

Columns and labels:
Experiment in all cases: native MS
[1] = target: protein kinase A regulatory type II (RII) subunit (UniProt P12367)
[2] = target: protein kinase A regulatory type II (RII) subunit (UniProt P12367); remark: listed apart in the source
AKAP79(297-427) = AKAP79(297-427) (UniProt P24588)
Chain of UniProt P24588 (P24588 297-427): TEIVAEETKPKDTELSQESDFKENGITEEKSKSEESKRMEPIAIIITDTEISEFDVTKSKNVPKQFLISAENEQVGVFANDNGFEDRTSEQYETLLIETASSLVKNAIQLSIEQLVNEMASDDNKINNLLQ

protein kinase A regulatory type II (RII) subunit (from UniProt P12367 1-401) (natural protein)
2: stoichiometry N (RII chains in the oligomer) [1] | stoichiometry N (RII chains in the oligomer) [2] | stoichiometry N (RII chains per AKAP79(297-427)) (AKAP79(297-427))
